Ten molecules from patent US12304939B2, “EGFR and C-met fibronectin type III domain binding molecules” (Janssen Biotech, Inc., priority 2012, dated 2025) can be followed below.

A short description of data set [1]: Body weight loss and tolerability in the H292-HGF xenograft study. The settings on record: mouse, in vivo.
Procedure: At the time of routine monitoring, the animals were checked for any effects of tumor growth and treatments on normal behavior, such as mobility, visual estimation of food and water consumption, body weight gain/loss (body weights were measured twice weekly), eye/hair matting and any other abnormal effect.
Animals for which the body weight loss exceeded 20%, or for which the mean tumor size of the group exceeds 2000 mm^3 were euthanized. The study was terminated after two weeks of observation after the final dose.
The subject of data set [2] is H292-HGF human lung cancer xenograft. The data set can be described thus: Efficacy of bispecific molecule and other inhibitors of EGFR and c-Met, subcutaneous H292-HGF human lung cancer xenograft. It counts as in vivo, SCID/Beige mice. The settings on record: for antitumor activity (in words): mouse, in vivo; for Tumor volume: mean ± SEM.
Procedure: The H292-HGF cells were maintained in vitro in RPMI1640 medium supplemented with fetal bovine serum (10% v/v), and L-glutamine (2 mM) at 37° C. in an atmosphere of 5% CO2 in air. The cells were routinely subcultured twice weekly by trypsin-EDTA treatment. The cells growing in an exponential growth phase were harvested and counted for tumor inoculation.
Each mouse was inoculated subcutaneously at the right flank region with H292-HGF tumor cells (2×10^6) in 0.1 ml of PBS with cultrex (1:1) for tumor development. The treatments were started when the mean tumor size reached 139 mm3. […] The date of tumor cell inoculation was denoted as day 0.
Before commencement of treatment, all animals were weighed, and the tumor volumes were measured. Since the tumor volume can affect the effectiveness of any given treatment, mice were assigned into groups using randomized block design based upon their tumor volumes. […] The randomized block design was used to assign experimental animals to groups. First, the experimental animals were divided into homogeneous blocks according to their initial tumor volume. Secondly, within each block, randomization of experimental animals to treatments was conducted.
The endpoint was whether tumor growth can be delayed or tumor bearing mice can be cured. Tumor size was measured twice weekly in two dimensions using a caliper, and the volume was expressed in mm3 using the formula: V=0.5 a×b2 where a and b are the long and short diameters of the tumor, respectively. The tumor size was then used for calculations of both T-C and T/C values. T-C was calculated with T as the time (in days) required for the mean tumor size of the treatment group to reach 1000 mm3, and C was the time (in days) for the mean tumor size of the control group to reach the same size. The T/C value (in percent) was an indication of antitumor efficacy; T and C were the mean tumor volume of the treated and control groups, respectively, on a given day. Complete tumor regression (CR) is defined as tumors that are reduced to below the limit of palpation (62.5 mm3). Partial tumor regression (PR) is defined as tumors that are reduced from initial tumor volume. A minimum duration of CR or PR in 3 or more successive tumor measurements is required for a CP or PR to be considered durable.
Statistical analyses of difference in tumor volume among the groups were evaluated using a one-way ANOVA followed by individual comparisons using Games-Howell (equal variance not assumed). All data were analyzed using SPSS 18.0. p<0.05 was considered to be statistically significant.
The nature of data set [3]: Differential scanning calorimetry in PBS (thermal stability). It counts as physicochemical. The settings on record: DSC in PBS, EGFR-binding FN3 domains. The source says:
A subset of the EGFR binding FN3 domains was engineered to increase the conformational stability of each molecule. […] The new mutants, P54AR5-83v2, P54CR431-v2, and P54AR4-37v2 were expressed and purified as described above. Differential scanning calorimetry in PBS was used to assess the stability of each mutant in order to compare it to that of the corresponding parent molecule.
Differential scanning calorimetry in PBS was used to assess the stability of each FN3 domain.
(In general: In DSC, transitions show as peaks or steps in heat flow.)

Data set [4] concerns NCI-H292 cells expressing human HGF. The data set can be described thus: Tumor efficacy study with four bispecific EGFR/c-Met molecules, H292-HGF xenografts. Type of data set: in vivo, SCID Beige mice. The settings on record: 25 mg/kg three times per week. The method, then: One week after implantation, mice were stratified into groups with equivalent tumor volumes (mean tumor volume=77.9+/−1.7 mm3). Mice were dosed three times per week with the bispecific molecules and tumor volumes were recorded twice weekly.

For a further data set, the target named is T1, c-Met-Fc fusion protein (Homo sapiens, UniProt P08581).
T1 construct: recombinant EGFR and/or c-Met extracellular domain
T1 sequence (P08581 25-932 limits assumed): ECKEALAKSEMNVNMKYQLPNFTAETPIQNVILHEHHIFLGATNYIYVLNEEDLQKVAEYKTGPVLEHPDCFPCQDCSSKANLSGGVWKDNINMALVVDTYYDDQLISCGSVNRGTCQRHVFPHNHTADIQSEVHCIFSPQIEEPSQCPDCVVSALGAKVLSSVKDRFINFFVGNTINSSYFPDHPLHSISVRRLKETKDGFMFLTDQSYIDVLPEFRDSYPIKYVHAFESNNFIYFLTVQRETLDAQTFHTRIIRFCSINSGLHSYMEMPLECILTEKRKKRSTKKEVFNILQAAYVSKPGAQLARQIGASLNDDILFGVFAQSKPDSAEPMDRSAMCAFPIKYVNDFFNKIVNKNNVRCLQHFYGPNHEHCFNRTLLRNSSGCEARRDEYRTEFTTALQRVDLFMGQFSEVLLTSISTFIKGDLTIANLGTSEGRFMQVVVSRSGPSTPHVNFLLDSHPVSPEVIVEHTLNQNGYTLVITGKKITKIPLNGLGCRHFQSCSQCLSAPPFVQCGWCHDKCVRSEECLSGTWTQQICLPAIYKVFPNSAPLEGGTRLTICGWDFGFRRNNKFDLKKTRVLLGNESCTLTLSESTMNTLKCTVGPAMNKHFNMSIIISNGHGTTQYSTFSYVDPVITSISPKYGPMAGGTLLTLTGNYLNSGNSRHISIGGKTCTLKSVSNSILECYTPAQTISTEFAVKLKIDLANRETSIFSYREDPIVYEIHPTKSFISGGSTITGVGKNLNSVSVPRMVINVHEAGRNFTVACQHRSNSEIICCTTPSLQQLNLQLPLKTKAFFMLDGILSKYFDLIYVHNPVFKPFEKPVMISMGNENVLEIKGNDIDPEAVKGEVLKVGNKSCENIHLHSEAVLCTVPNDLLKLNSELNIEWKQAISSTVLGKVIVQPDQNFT
The data set can be described thus: c-Met-Fc affinity by surface plasmon resonance (Proteon). Type of data set: binding. (Surface plasmon resonance follows binding to a sensor surface in real time, without labels.)

Data set [5] relates to cell lines shown in Table 20. The data set is described as follows: Inhibition of human tumor cell growth by bispecific molecule in cell line panel (standard or low attachment). Type of data set: cell-based. As for the experimental part:
(§1) Inhibition of human tumor cell growth was assessed in standard attachment culture as described in Examples 3 or 6, or in low attachment conditions.

In a further data set the test system is H292 cells. The data set is described as follows: Inhibition of proliferation of HGF-induced H292 cells. The following applies: bispecific molecules. Type of data set: cell-based, human.
Excerpt: Inhibition of tumor cell proliferation can be measured using standard methods and methods described herein.
The proliferation assay was completed using different combinations EGFR and c-Met binding FN3 domains either as a mixture or linked in a bispecific format. […] This confirmed that the avidity effect observed at the level of the receptors (FIG. 4 and FIG. 5) translates into an improvement in inhibiting cell signaling (Table 12) and cell proliferation (Table 13).
as §1

Data set [6] deals with T2, recombinant EGFR extracellular domain (EGFR-Fc) (Homo sapiens, UniProt P00533).
T2 construct: purchased R&D Systems
The data set can be described thus: EGFR-Fc affinity by surface plasmon resonance (Proteon). Type of data set: binding. The following applies: bispecific molecules; read-out: KD (EGFR). The method, then:
Select EGFR-binding FN3 domains were screened to identify those with slow off-rates (koff) in binding to EGFR-Fc on a ProteOn XPR-36 instrument (Bio-Rad) to facilitate selection of high affinity binders. Goat anti-human Fc IgG (R&D systems), at a concentration of 5 μg/mL, was directly immobilized via amine coupling (at pH 5.0) on all 6 ligand channels in horizontal orientation on the chip with a flow rate of 30 μL/min in PBS containing 0.005% Tween-20. The immobilization densities averaged about 1500 Response Units (RU) with less than 5% variation among different channels. EGFR-Fc was captured on the anti-human Fc IgG surface to a density around 600 RU in vertical ligand orientation. All tested FN3 domains were normalized to a concentration of 1 μM and tested for their binding in horizontal orientation. […] The dissociation phase was monitored for 10 minutes at a flow rate of 100 μL/min. […]
Binding affinity of selected EGFR-binding FN3 domains to recombinant EGFR extracellular domain was further characterized by surface Plasmon resonance methods using a Proteon Instrument (BioRad). […] The dissociation phase for all concentrations of each EGFR-binding FN3 domain was monitored at a flow rate of 100 μL/min for 30 minutes (for those with koff ˜10^−2 s^−1 from off-rate screening), or 1 hour (for those with koff ˜10^−3 s^−1 or slower). […]

[7] abbreviates: listed as bispecific EGFR/c-Met molecule.
The mark [8] stands for this setting: serine mutants of A3 in the context of ECB15.

Changes are numbered by the printed parent chain. Where “and” joins values, the source holds several entries; their conditions need not be identical. Equal values may be shown once. Entries after “also recorded” stand apart in the source; their conditions may differ.

By Tm is commonly meant the temperature at the midpoint of the melting transition. What is called IC50 is the midpoint of a concentration-inhibition curve. By Kd is commonly meant a measure of binding affinity in units of concentration.

Turning to `C#Cc1cccc(Nc2ncnc3cc(OCCOC)c(OCCOC)cc23)c1` [Erlotinib, erlotinib, reference compound], the “toxicity, body weight loss, tolerability (in words)” value (“toxicity, body weight loss” below) in data set [1] is “More severe body weight loss”.
Consider `C[C@@H](Oc1cc(-c2cnn(C3CCNCC3)c2)cnc1N)c1c(Cl)ccc(F)c1Cl` [Crizotinib, crizotinib, reference compound], for which, in data set [2], the “antitumor activity (in words)” value is listed as “no antitumor activity”. In data set [1], the “toxicity, body weight loss” value is given as “More severe body weight loss”.

B1: P54CR4-31: EGFR-binding FN3 domain, SEQ ID NO: 26 (protein)
chain: LPAPKNLVVSEVTEDSLRLSWTAPDAAFDSFLIQYQESEKVGEAINLTVPGSERSYDLTGLKPGTEYTVSIYGVLGSYVFEHDVMLPLSAEFTT
modifications: EGFR binding FN3 domain
As for B1, the Tm in data set [3] was found to be 60.9 °C.

B2: P54CR4-31v2: EGFR-binding FN3 domain, SEQ ID NO: 28; stabilized P54CR4-31 (protein)
chain: B1 chain with L17A, N46V, E91I
modifications: EGFR binding FN3 domain
With B2, the Tm in data set [3] came out at 78.9 °C.

B3: ECB38: bispecific SEQ ID NO: 120: P54AR4-83v2, (AP)5, P114AR7P94-A3, linked to albumin binding domain (protein)
chain: MLPAPKNLVVSEVTEDSARLSWDDPWAFYESFLIQYQESEKVGEAIVLTVPGSERSYDLTGLKPGTEYTVSIYGVHNVYKDTNMRGLPLSAIFTTAPAPAPAPAPLPAPKNLVVSRVTEDSARLSWTAPDAAFDSFWIRYFEFLGSGEAIVLTVPGSERSYDLTGLKPGTEYVVNIMGVKGGKISPPLSAIFTTAPAPAPAPAPLAEAKVLANRELDKYGVSDYYKNLINNAKTVEGVKALLDEILAALP
modifications: Bispecific EGFR/c-Met binding molecule
In the case of B3, the figures for the “tumor growth (tumor growth inhibition, TGI)” value in data set [4] and in data set [4] (listed as P54AR4-83v2-P114AR7P94-A3) were “reduced tumor growth” and “showed the most efficacy”, respectively. For the same molecule, the “Tumor Size at day 23” value in data set [2] (bispecific 25 mg/kg, crizotinib, erlotinib 50 mg/kg, cetuximab 1 mg/mouse, listed as bispecific EGFR/c-Met molecule) was 23 mm^3 and 23 ± 7 mm^3. Also, the Tumor volume in data set [2] (day 7 (start of treatment)) is given as 137 ± 7 mm^3; in data set [2] (day 9), 142 ± 7 mm^3; in data set [2] (day 13), 83 ± 6 mm^3; in data set [2] (day 16), 44 ± 7 mm^3; in data set [2] (day 20), 30 ± 6 mm^3; in data set [2] (day 23) it was 23 ± 7 mm^3. The Tumor volume worked out at 21 ± 5 mm^3 in data set [2] (day 27) and 23 ± 6 mm^3 in data set [2] (day 30). The “antitumor activity (in words)” value in data set [2] (setting [7]) was “complete tumor regression (CR) in all mice; also recorded: complete response”. In addition, in data set [1] (setting [7]), the “toxicity, body weight loss” value was “Slight toxicity; also recorded: tolerated in 7 out of 10 mice”.

B4: P54AR4-37v2: EGFR-binding FN3 domain, SEQ ID NO: 29; stabilized P54AR4-37 (protein)
chain: LPAPKNLVVSEVTEDSLRLSWTWPYADLDSFLIQYQESEKVGEAINLTVPGSERSYDLTGLKPGTEYTVSIYGVHNVYKDTNMRGLPLSAEFTT
modifications: EGFR binding FN3 domain
On to B4, for which the Tm in data set [3] stood at 64.2 °C.

B5: P54AR4-37: EGFR-binding FN3 domain, printed SEQ ID NO: 22 (possibly P54AR4-73) (protein)
chain: B4 chain
modifications: EGFR binding FN3 domain
On to B5, for which the Tm in data set [3] was determined as 45.9 °C.

B6: P54AR4-83: EGFR-binding FN3 domain, SEQ ID NO: 25 (protein)
chain: B4 chain with T22D, W23D, Y25W, D27F, L28Y, D29E
modifications: EGFR binding FN3 domain
Turning to B6, the Tm in data set [3] was determined as 50.6 °C.

B7: ECB15: bispecific SEQ ID NO: 57: P54AR4-83v2, (AP)5, P114AR7P94-A3 (protein)
chain: MLPAPKNLVVSEVTEDSARLSWDDPWAFYESFLIQYQESEKVGEAIVLTVPGSERSYDLTGLKPGTEYTVSIYGVHNVYKDTNMRGLPLSAIFTTAPAPAPAPAPLPAPKNLVVSRVTEDSARLSWTAPDAAFDSFWIRYFEFLGSGEAIVLTVPGSERSYDLTGLKPGTEYVVNIMGVKGGKISPPLSAIFTT
modifications: bispecific EGFR/cMet binding molecule
In the data set with c-Met-Fc fusion protein (setting [8]), B7 yielded a ka of 351000 M⁻¹ s⁻¹ and a kd of 0.000133 s⁻¹. Besides, the “growth of NCI-H1975 cell line” value in data set [5] (EGFR L858R, T790M) is reported as “inhibited growth”. Further, the “tumor cell growth of cell lines shown in Table 20” value in data set [5] (wild type, amplified or mutant EGFR, wild type or amplified c-Met) was “inhibited tumor cell growth”. Besides, the concentration for half-maximal inhibition (IC50) with H292 cells came to 23 nM.

B8: ECB168: bispecific SEQ ID NO: 190: P54AR4-83v22, (AP)5, P114AR7P95-C5v2 (protein)
chain: B7 chain with M84I, M177L, G178S, K183S
modifications: Bispecific EGFR/c-Met molecule
Turning to B8, the Kd in data set [6] amounted to 0.4 nM; with c-Met-Fc fusion protein (bispecific molecules, read-out: KD (c-Met)), 0.32 nM. For the same molecule, the IC50 in the data set on H292 cells was 3.1 nM.
